Measured values published in US20240415919A1, “COMPOSITIONS AND METHODS FOR TREATMENT OF AUTOIMMUNE DISORDERS AND CANCER” (Dana-Farber Cancer Institute, Inc., priority 2021, published 2024).
Where a chain is given by its changes, count along the chain named.

T1: FL9 self-peptide (source protein not named) peptide on Qa-1b (mouse)
T1 peptide: FYAEATPML

T2: FL9-68, synthetic superagonist variant of the FL9 self-peptide (P to L at position 7) peptide on Qa-1b (mouse)
T2 peptide: FYAEATLML

T3: Hsp60 (Hsp60p216) peptide on Qa-1b (mouse)
T3 peptide: GMKFDRGYI

B1: FL9.15 (TCR, V domains shown)
Valpha: GDSVTQTEGPVTVSESESLIINCTYSATSIAYPNLFWYVRYPGEGLQLLLKVITAGQKGSSRGFEATYNKETTSFHLQKASVQESDSAVYYCALGEASSGSWQLIFGSGTQLTVMP
Vbeta: DSGVVQSPRHIIKEKGGRSVLTCIPISGHSNVVWYQQTLGKELKFLIQHYEKVERDKGFLPSRFSVQQFDDYHSEMNMSALELEDSAMYFCASSLGQGNYAEQFFGPGTRLTVL
B2: FL9.35 (TCR, V domains shown)
Valpha: AQSVTQPDARVTVSEGASLQLRCKYSYFGTPYLFWYVQYPRQGLQLLLKYYPGDPVVQGVNGFEAEFSKSNSSFHLRKASVHWSDWAVYFCAVSMMGYKLTFGTGTSLLVDP
Vbeta: B1 Vbeta with L95R, G96T, Q97G, N99S, Y100A, A101E, E102T, Q103L, F104Y, P107S
B3: FL9.38 (TCR, V domains shown)
Valpha: QQKVQQSPESLSVPEGGMASLNCTSSDRNFQYFWWYRQHSGEGPKALMSIFSDGDKKEGRFTAHLNKASLHVSLHIRDSQPSDSALYFCALSESSGSWQLIFGSGTQLTVMP
Vbeta: EAAVTQSPRSKVAVTGGKVTLSCHQTNNHDYMYWYRQDTGHGLRLIHYSYVADSTEKGDIPDGYKASRPSQENFSLILELASLSQTAVYFCASRDRGDQNTLYFGAGTRLSVL
B4: FL9.2 TCR (TCR, V domains shown)
Valpha: B2 Valpha with S94R, M95A, M96N, G97T, Y98G, T104D, S107V, L109T, D111K
Vbeta: DSGVVQSPRHIIKEKGGRSVLTCIPISGHSNVVWYQQTLGKELKFLIQHYEKVERDKGFLPSRFSVQQFDDYHSEMNMSALELEDSAMYFCASSPRLASAETLYFGSGTRLTVL
B5: FL9.8 TCR (TCR, V domains shown)
Valpha: AQSVTQPDARVTVSEGASLQLRCKYSYFGTPYLFWYVQYPRQGLQLLLKYYPGDPVVQGVNGFEAEFSKSNSSFHLRKASVHWSDWAVYFCAVRANYAQGLTFGLGTRVSVFP
Vbeta: NSGVVQSPRYIIKGKGERSILKCIPISGHLSVAWYQQTQGQELKFFIQHYDKMERDKGNLPSRFSVQQFDDYHSEMNMSALELEDSAVYFCASSLLGGPSAETLYFGSGTRLTVL
B6: FL9.41 (TCR, V domains shown)
Valpha: AQSVTQPDARVTVSEGASLQLRCKYSYFGTPYLFWYVQYPRQGLQLLLKYYPGDPVVQGVNGFEAEFSKSNSSFHLRKASVHWSDWAVYFCAVSIWATSSGQKLVFGQGTILKVYL
Vbeta: VTLLEQNPRWRLVPRGQAVNLRCILKNSQYPWMSWYQQDLQKQLQWLFTLRSPGDKEVKSLPGADYLATRVTDTELRLQVANMSQGRTLYCTCSARQGSGNTLYFGEGSRLIVV
B7: FL9.40 (TCR, V domains shown)
Valpha: AQSVTQPDARVTVSEGASLQLRCKYSYFGTPYLFWYVQYPRQGLQLLLKYYPGDPVVQGVNGFEAEFSKSNSSFHLRKASVHWSDWAVYFCAVTRYGSSGNKLIFGIGTLLSVKP
Vbeta: B4 Vbeta with A98G
B8: FL9.34 (TCR, V domains shown)
Valpha: B5 Valpha with A95G, N96Q, Y97G, A98G, Q99R, G100A, T102I, L105T, R108T, F112S
Vbeta: NSGVVQSPRYIIKGKGERSILKCIPISGHLSVAWYQQTQGQELKFFIQHYDKMERDKGNLPSRFSVQQFDDYHSEMNMSALELEDSAVYFCASSPGPSQNTLYFGAGTRLSVL
B9: FL9.31 (TCR, V domains shown)
Valpha: AQSVTQPDARVTVSEGASLQLRCKYSYFGTPYLFWYVQYPRQGLQLLLKYYPGDPVVQGVNGFEAEFSKSNSSFHLRKASVHWSDWAVYFCAVKDSGYNKLTFGKGTVLLVSP
Vbeta: NSGVVQSPRYIIKGKGERSILKCIPISGHLSVAWYQQTQGQELKFFIQHYDKMERDKGNLPSRFSVQQFDDYHSEMNMSALELEDSAVYFCASSLAGREQYFGPGTRLTVL
B10: FL9.30 (TCR, V domains shown)
Valpha: AQSVTQPDARVTVSEGASLQLRCKYSYFGTPYLFWYVQYPRQGLQLLLKYYPGDPVVQGVNGFEAEFSKSNSSFHLRKASVHWSDWAVYFCAVSSNNAGAKLTFGGGTRLTVRP
Vbeta: B4 Vbeta with P95R, L97P
B11: FL9.5 (TCR, V domains shown)
Valpha: B2 Valpha with S94K, M95G, M96G, G97N, L100P, T104K, L109V, D111H
Vbeta: NSGVVQSPRYIIKGKGERSILKCIPISGHLSVAWYQQTQGQELKFFIQHYDKMERDKGNLPSRFSVQQFDDYHSEMNMSALELEDSAVYFCASSLTGAYEQYFGPGTRLTVL
B12: FL9.26 (TCR, V domains shown)
Valpha: B2 Valpha with M95T, M96G, L100V, T101V, T104S, S107R, D111S
Vbeta: NSGVVQSPRYIIKGKGERSILKCIPISGHLSVAWYQQTQGQELKFFIQHYDKMERDKGNLPSRFSVQQFDDYHSEMNMSALELEDSAVYFCASSHRSFSGNTLYFGEGSRLIVV
B13: FL9.43 (TCR, V domains shown)
Valpha: B2 Valpha with S94K, M95S, M96T, Y98S, T101S, T104K, T106A, S107K, L109T, D111S
Vbeta: B12 Vbeta with H95P, S97L, F98G, G100A, N101E, E107S, S109T, I112T, V114L

Assays:
Ly49F (mouse) = Ly49F (mouse) (UniProt Q60653); assay: cell-based or functional assay
Balb/C heart allografts = assay: Balb/C heart transplantation into skin-sensitized B6 hosts after peptide vaccination; conditions: immunized hosts, FIG. 11B
Method: After selecting FL9-SA, we performed BALB/c to B6 skin transplantation with or without Hsp60p2l6 and FL9-SA, followed by heart transplantation.
B6 mice were immunized i.p with 50 μg FL9-68/IFA or with IFA alone at day 0 and 7 followed by a BALB/C→B6 skin transplant at day 10. FL9-68/IFA or IFA immunization was repeated on days 10, 13 and 16. At day 27, fully vascularized Balb/C hearts were transplanted into the abdominal cavity of B6 mice using microsurgical techniques, as previously described (Cai et al., 2016). Heart graft survival was determined by monitoring palpable heart beating. At day X after skin sensitization, levels of FL9 T cells, Tfh, GC B and plasma cells in dLNs were analyzed by flowcytometry. Serum was collected from the heart graft recipient B6 mice that were either immunized with FL9-68/IFA or IFA alone at day 16. […] Histological analysis of heart grafts was performed by InvivoEx company using anti-C4d Ab (Hycult Biotech) and Vector Blue Alkaline Phosphatase Substrate Kit (Vector Laboratories).
B6 mice were immunized i.p with 50 μg FL9-68-Adjuvant (IFA or AddaVax™) or Adjuvant alone at day 0 and 7 followed by a BALB/C→B6 skin transplant at day 10. FL9-68-Adj or Adj immunization was repeated on days 10, 13 and 16. At day 27, fully vascularized Balb/C hearts were transplanted into the abdominal cavity of B6 mice using microsurgical techniques, as previously described^36. Heart graft survival was determined by monitoring palpable heart beating. At day 16 after skin sensitization, levels of FL9 T cells, Tfh, GC B and plasma cells in dLNs were analyzed by flowcytometry. Serum was collected from the heart graft recipient B6 mice that were either immunized with FL9-68/IFA or IFA alone at day 16. […] Histological analysis of heart grafts was performed by InvivoEx company using anti-C4d Ab (Hycult Biotech) and Vector Blue Alkaline Phosphatase Substrate Kit (Vector Laboratories).

FL9.2 T cells = assay: FL9 peptide immunization of hosts adoptively transferred with FL9.2 T cells; assay type: in vivo, mouse
Method: CD45.1+B6 hosts were adoptively transferred with FL9.2 T cells and immunized i.p. with FL9 in CFA or no peptide (CFA alone) on day 0. Three days later, activation (CD69) proliferation of FL9.2 T cells (Ki67) was measured.
(§1) CD45.1^+ B6 or TCRα^−/− mice were transferred with CFSE labelled 2×10^6 FL9.2 Tg T cells followed by i.p. immunization with 100 μg FL9 or FL9-68 peptides in CFA. Proliferation and activation of FL9.2 Tg T cells in the adoptive hosts were analzyed by assessing CFSE dilution, Ki67 and CD69 expression at day 3 and 6 after transfer.
as §1, with “CD45.1^+B6” for “CD45.1^+ B6”

[1] = biological target: T1, FL9 self-peptide (source protein not …); assay: multimer staining
[2] = biological target: T2, FL9-68, synthetic superagonist variant …; assay: activation reporter or marker
[3] = biological target: T1, FL9 self-peptide (source protein not …); assay: Kd or kinetics
[4] = biological target: T3, Hsp60 (Hsp60p216) peptide on Qa-1b; assay: multimer staining

Sequence of Ly49F (mouse) (Q60653 whole entry): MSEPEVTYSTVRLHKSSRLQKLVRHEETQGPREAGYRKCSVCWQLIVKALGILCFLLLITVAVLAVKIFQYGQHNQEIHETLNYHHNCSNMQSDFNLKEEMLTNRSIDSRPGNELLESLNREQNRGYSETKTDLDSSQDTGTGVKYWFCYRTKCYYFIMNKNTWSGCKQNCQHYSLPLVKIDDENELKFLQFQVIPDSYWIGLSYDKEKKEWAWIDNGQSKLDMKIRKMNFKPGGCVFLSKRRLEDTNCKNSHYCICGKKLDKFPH

Row | Molecule | binding result [1] | also measured
1 | Chimeric anti-Ly49F Ab (HBF-719 with mIgG2a Fc) (antibody) | – | depletion of Ly49F+ CD8 Treg in spleen, lymphocytes and blood (Ly49F (mouse)): > 95%
2 | FYAEATPML [FL9, Qa-1-associated self-peptide, reference compound] | – | expansion of FL9-Qa-1 tetramer binding CD8 Treg (CD44+CD122+Ly49+CD8+T) (Balb/C heart allografts): 8 fold; in vivo activation/proliferation of transferred FL9 TCR+ CD8 T cells (FL9.2 T cells; i.p. immunization with peptide in CFA, CD45.1+ B6 or TCRα-/- hosts): no in vivo stimulation of FL9.2 T cells; expansion of CD8 Treg after immunization (FL9.2 T cells; immunization of mice with the self-peptide): did not elicit detectable expansion of CD8 Treg
3 | B1 | no recognition | –
4 | B2 | recognises | –
5 | B3 | no recognition | –
6 | B4 | – | binding result [2]: recognises
7 | B5 | – | binding result [3]: recognises; binding result [2]: recognises; binding result [4]: no recognition
8 | B6 | recognises | –
9 | B7 | recognises | –
10 | B8 | recognises | –
11 | B9 | recognises | –
12 | B10 | recognises | –
13 | B11 | recognises | –
14 | B12 | recognises | –
15 | B13 | recognises | –
